The record followed here is patent US11402384B2 (Duke University, priority 2015, dated 2022).

By Kd is commonly meant the concentration at which binding is half-saturated.

Where two headings read alike, the source gives them in different places.

A short description of this experiment: Ratiometric fluorescence glucose titration of fluorescent conjugates. Type of experiment: binding. More on the design: key to Shape (fluorescence response to glucose) / Change (fluorescence response to glucose): m, monochromatic; d, dichromatic (i.e. spectral shape change); 0, no change. Conditions: tsGBP2 cysteine scan; for Kd: ratiometric fit at λ1 and λ2. The source says:
Semi-synthetic FRSs can be engineered by site-specifically attaching thiol-reactive, environmentally sensitive fluorophores that respond to ligand-mediated conformational changes. Identification of FRS candidates that can be used for sensing applications comprises three steps: • 1. Cysteine scan. Mutant glucose-binding proteins containing single cysteines are constructed for site-specific attachment of thiol-reactive fluorophores. […] Candidate positions fall into three classes: endosteric, replacing a residue that contacts the ligand directly; peristeric, located at the rim of the binding site; allosteric (Marvin et al., 1997, Proc Natl Acad Sci USA, 94, 4366-71; Marvin, 1998, J Am Chem Soc, 120, 7-11), located outside the binding site at sites that undergo local structural changes in concert with the hinge-bending motion. • 2. Fluorophore screening. Thiol-reactive, environmentally sensitive fluorophores are attached to each cysteine mutant prepared in step 1. • 3. Evaluation of the glucose-mediated change of all the fluorescent conjugates prepared in step 2. Responses to ligand binding in which there is both a change in fluorescence emission intensity and spectral shape are essential for chemometric applications, because such changes enable ratiometric measurements. Changes in spectral shape typically are accompanied by a shift in the wavelength of the emission intensity maxima. Three classes of fluorescent responses are possible: • i. No response. • ii. Monochromatic response (emission intensity increases or decreases without a change in spectral shape) • iii.
Determination of temperature- and ligand-dependent fluorescence landscapes. […] Temperatures were advanced in 1K steps.
Determination of emission intensity spectra.
2 For a single glucose-binding site, the fractional saturation is given by […]

B1: S277C Badan: tsGBP2_C277 (SEQ ID NO: 31) Badan conjugate (conjugate)
chain: MKLEIFSWWAGDEGPALEALIRLYKQKYPGVEVINATVTGGAGVNAKAVLKTRMLGGDPPDTFQVHAGQELIGTWVVADRMEDLTSLFRQEGWLQAFPKGLIDLLSYKGGIWSVPVNIHRSNVMWYIPAKLKEWGVTPPKTWAEFLATAQTLKRKGLEAPLALGENWTQQHLWESVALATLGADGWNNLWSGKLKFTDPKAVAVWETFGKVLDAANKDAAGLSWQQAVDRVVQGKAAFNIMGDWAAGYMSTTLKLKPGTDFAWTPSPGTSGIFMMLCDSFGLPKGAKNRQNAINWLKLVGSKEGQDTFNPLKGSIAARLDSDPAKYNAYGQSAMKDWKSNRIVGSLVHGAVAPESFMSQFGTVMEIFLQSRNPQAAANAAQAIANQVGLGRGGSHHHHHH
modifications: Badan conjugate; tsGBP2_C277 (cysteine substitution mutant with signal peptide replaced with M and a GGSHHHHHH at C-terminus)
B1: the “Shape (fluorescence response to glucose)” value (Badan conjugate) turned out to be 0.

B2: W337 Badan: tsGBP2_C337 (SEQ ID NO: 34) Badan conjugate (conjugate)
chain: MKLEIFSWWAGDEGPALEALIRLYKQKYPGVEVINATVTGGAGVNAKAVLKTRMLGGDPPDTFQVHAGQELIGTWVVADRMEDLTSLFRQEGWLQAFPKGLIDLLSYKGGIWSVPVNIHRSNVMWYIPAKLKEWGVTPPKTWAEFLATAQTLKRKGLEAPLALGENWTQQHLWESVALATLGADGWNNLWSGKLKFTDPKAVAVWETFGKVLDAANKDAAGLSWQQAVDRVVQGKAAFNIMGDWAAGYMSTTLKLKPGTDFAWTPSPGTSGIFMMLSDSFGLPKGAKNRQNAINWLKLVGSKEGQDTFNPLKGSIAARLDSDPAKYNAYGQSAMKDCKSNRIVGSLVHGAVAPESFMSQFGTVMEIFLQSRNPQAAANAAQAIANQVGLGRGGSHHHHHH
modifications: Badan conjugate; tsGBP2_C337 (337C substitution mutant with signal peptide replaced with M and a GGSHHHHHH at C-terminus)
For B2, the “Shape (fluorescence response to glucose)” value (Badan conjugate) was 0.

B3: K312C Badan: tsGBP2_C312 (SEQ ID NO: 33) Badan conjugate (conjugate)
chain: MKLEIFSWWAGDEGPALEALIRLYKQKYPGVEVINATVTGGAGVNAKAVLKTRMLGGDPPDTFQVHAGQELIGTWVVADRMEDLTSLFRQEGWLQAFPKGLIDLLSYKGGIWSVPVNIHRSNVMWYIPAKLKEWGVTPPKTWAEFLATAQTLKRKGLEAPLALGENWTQQHLWESVALATLGADGWNNLWSGKLKFTDPKAVAVWETFGKVLDAANKDAAGLSWQQAVDRVVQGKAAFNIMGDWAAGYMSTTLKLKPGTDFAWTPSPGTSGIFMMLSDSFGLPKGAKNRQNAINWLKLVGSKEGQDTFNPLCGSIAARLDSDPAKYNAYGQSAMKDWKSNRIVGSLVHGAVAPESFMSQFGTVMEIFLQSRNPQAAANAAQAIANQVGLGRGGSHHHHHH
modifications: Badan conjugate; tsGBP2_C312 (312C substitution mutant with signal peptide replaced with M and a GGSHHHHHH at C-terminus)
In the case of B3, under “Badan conjugate”, the “Shape (fluorescence response to glucose)” value is “m”.

B4: W337 Acrylodan: tsGBP2_C337 (SEQ ID NO: 34) Acrylodan conjugate (conjugate)
chain: MKLEIFSWWAGDEGPALEALIRLYKQKYPGVEVINATVTGGAGVNAKAVLKTRMLGGDPPDTFQVHAGQELIGTWVVADRMEDLTSLFRQEGWLQAFPKGLIDLLSYKGGIWSVPVNIHRSNVMWYIPAKLKEWGVTPPKTWAEFLATAQTLKRKGLEAPLALGENWTQQHLWESVALATLGADGWNNLWSGKLKFTDPKAVAVWETFGKVLDAANKDAAGLSWQQAVDRVVQGKAAFNIMGDWAAGYMSTTLKLKPGTDFAWTPSPGTSGIFMMLSDSFGLPKGAKNRQNAINWLKLVGSKEGQDTFNPLKGSIAARLDSDPAKYNAYGQSAMKDCKSNRIVGSLVHGAVAPESFMSQFGTVMEIFLQSRNPQAAANAAQAIANQVGLGRGGSHHHHHH
modifications: Acrylodan conjugate; tsGBP2_C337 (337C substitution mutant with signal peptide replaced with M and a GGSHHHHHH at C-terminus)
In the case of B4, where the note is “Acrylodan conjugate”, the “Shape (fluorescence response to glucose)” value is given as “m”.

B5: D278C Acrylodan: tsGBP2_C278 (SEQ ID NO: 32) Acrylodan conjugate (conjugate)
chain: MKLEIFSWWAGDEGPALEALIRLYKQKYPGVEVINATVTGGAGVNAKAVLKTRMLGGDPPDTFQVHAGQELIGTWVVADRMEDLTSLFRQEGWLQAFPKGLIDLLSYKGGIWSVPVNIHRSNVMWYIPAKLKEWGVTPPKTWAEFLATAQTLKRKGLEAPLALGENWTQQHLWESVALATLGADGWNNLWSGKLKFTDPKAVAVWETFGKVLDAANKDAAGLSWQQAVDRVVQGKAAFNIMGDWAAGYMSTTLKLKPGTDFAWTPSPGTSGIFMMLSCSFGLPKGAKNRQNAINWLKLVGSKEGQDTFNPLKGSIAARLDSDPAKYNAYGQSAMKDWKSNRIVGSLVHGAVAPESFMSQFGTVMEIFLQSRNPQAAANAAQAIANQVGLGRGGSHHHHHH
modifications: Acrylodan conjugate; tsGBP2_C278 (278C substitution mutant with signal peptide replaced with M and a GGSHHHHHH at C-terminus)
Consider B5, for which, for the setting “Acrylodan conjugate”, the “Shape (fluorescence response to glucose)” value was “m”.

B6: D278C Badan: tsGBP2_C278 (SEQ ID NO: 32) Badan conjugate (conjugate)
chain: MKLEIFSWWAGDEGPALEALIRLYKQKYPGVEVINATVTGGAGVNAKAVLKTRMLGGDPPDTFQVHAGQELIGTWVVADRMEDLTSLFRQEGWLQAFPKGLIDLLSYKGGIWSVPVNIHRSNVMWYIPAKLKEWGVTPPKTWAEFLATAQTLKRKGLEAPLALGENWTQQHLWESVALATLGADGWNNLWSGKLKFTDPKAVAVWETFGKVLDAANKDAAGLSWQQAVDRVVQGKAAFNIMGDWAAGYMSTTLKLKPGTDFAWTPSPGTSGIFMMLSCSFGLPKGAKNRQNAINWLKLVGSKEGQDTFNPLKGSIAARLDSDPAKYNAYGQSAMKDWKSNRIVGSLVHGAVAPESFMSQFGTVMEIFLQSRNPQAAANAAQAIANQVGLGRGGSHHHHHH
modifications: Badan conjugate; tsGBP2_C278 (278C substitution mutant with signal peptide replaced with M and a GGSHHHHHH at C-terminus)
In the case of B6, the “Shape (fluorescence response to glucose)” value (Badan conjugate) is on record as 0.

B7: K312C Acrylodan: tsGBP2_C312 (SEQ ID NO: 33) Acrylodan conjugate (conjugate)
chain: MKLEIFSWWAGDEGPALEALIRLYKQKYPGVEVINATVTGGAGVNAKAVLKTRMLGGDPPDTFQVHAGQELIGTWVVADRMEDLTSLFRQEGWLQAFPKGLIDLLSYKGGIWSVPVNIHRSNVMWYIPAKLKEWGVTPPKTWAEFLATAQTLKRKGLEAPLALGENWTQQHLWESVALATLGADGWNNLWSGKLKFTDPKAVAVWETFGKVLDAANKDAAGLSWQQAVDRVVQGKAAFNIMGDWAAGYMSTTLKLKPGTDFAWTPSPGTSGIFMMLSDSFGLPKGAKNRQNAINWLKLVGSKEGQDTFNPLCGSIAARLDSDPAKYNAYGQSAMKDWKSNRIVGSLVHGAVAPESFMSQFGTVMEIFLQSRNPQAAANAAQAIANQVGLGRGGSHHHHHH
modifications: Acrylodan conjugate; tsGBP2_C312 (312C substitution mutant with signal peptide replaced with M and a GGSHHHHHH at C-terminus)
With B7, the “Shape (fluorescence response to glucose)” value (Acrylodan conjugate) is “d”. Besides, the Kd runs as follows: (Acrylodan conjugate, read-out: Kd ^appKd) 9 µM; (Acrylodan conjugate, read-out: Kd ^trueKd) 10 µM.
